The source of these data is US12295987B2, “Method of using a GIP/GLP1 co-agonist for diabetes” (Eli Lilly and Company, priority 2018, dated 2025).

This assay has as its target T1, human gastric inhibitory peptide receptor (hGIPR) (Homo sapiens, UniProt P48546).
T1 construct: expressed in transfected cells; host or cells: HEK293
T1 sequence (P48546 22-466): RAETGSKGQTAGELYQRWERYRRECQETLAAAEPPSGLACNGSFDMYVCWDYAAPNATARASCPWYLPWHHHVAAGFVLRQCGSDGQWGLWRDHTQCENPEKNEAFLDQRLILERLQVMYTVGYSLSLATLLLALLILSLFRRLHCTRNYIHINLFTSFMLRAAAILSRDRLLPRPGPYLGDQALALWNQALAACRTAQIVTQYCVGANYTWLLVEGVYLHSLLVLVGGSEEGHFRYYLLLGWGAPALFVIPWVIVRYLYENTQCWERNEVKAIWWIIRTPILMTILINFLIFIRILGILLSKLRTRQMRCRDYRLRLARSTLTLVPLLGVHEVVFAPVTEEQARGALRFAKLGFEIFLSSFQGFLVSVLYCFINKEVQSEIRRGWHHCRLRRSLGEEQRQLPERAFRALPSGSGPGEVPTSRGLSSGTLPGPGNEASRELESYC
Description: cAMP pharmacological functional assay in presence of 0.1% casein, hGIPR. It counts as cell-based. The conditions noted are these: ratio of hGIPR to hGLP1R cAMP EC50 ratios.
Take “Y-Aib-EGT-αMeF(2F)-TSDYSI-αMeL-LDEK((2-[2-(2-Amino-ethoxy)-ethoxy]-acetyl)2-CO—(CH2)18—CO2H)AQ-Aib-EFI-(D-Glu)-YLIEGGPSSGAPPPS-NH2 (YXEGTXTSDYSIXLDEKAQXEFIXYLIEGGPSSGAPPPS; Aib, αMeF(2F), αMeL, D-Glu; lipidated K; amide; (2)..(2) Xaa at position 2 is Aib; (6)..(6) Xaa at position 6 is alpha-methyl-Phe(2F); (13)..(13) Xaa at position 13 is alpha-methyl-Leu; MOD_RES (17)..(17) Lys at position 17 is chemically modified by conjugation of the epsilon-amino group of the Lys side chain with (2-[2-(2-amino-ethoxy)-ethoxy]-acetyl)2-CO-(CH2)18-CO2H; (20)..(20) Xaa at position 20 is Aib; (24)..(24) Xaa at position 24 is D-Gl) [Peptide 215]”: the “[hGIPR/hGLP1R] EC50 Ratio” value is given as 4.34. As for “Y-Aib-EGT-αMeF(2F)-TSDYSI-αMeL-LDHK((2-[2-(2-Amino-ethoxy)-ethoxy]-acetyl)2-(γGlu)-CO—(CH2)18—CO2H)AQ-Aib-EFI-(D-Glu)-YLIEGGPSSGAPPPS-NH2 (YXEGTXTSDYSIXLDHKAQXEFIXYLIEGGPSSGAPPPS; Aib, αMe residues, lipidated Lys, D-Glu, C-terminal amide; (2)..(2) Xaa at position 2 is Aib; (6)..(6) Xaa at position 6 is alpha-methyl-Phe(2F); (13)..(13) Xaa at position 13 is alpha-methyl-Leu; MOD_RES (17)..(17) Lys at position 17 is chemically modified by conjugation of the epsilon-amino group of the Lys side chain with (2-[2-(2-amino-ethoxy)-ethoxy]-acetyl)2-(gamma-Glu)-CO-(CH2)18- CO2H; (20)..(20) Xaa at position 20 is Aib; (24)..(24) Xaa at positi) [Peptide 230]”, the figure is 5.53. On to “Y-Aib-EGT-αMeF(2F)-TSDYSI-αMeL-LDKK((2-[2-(2-Amino-ethoxy)-ethoxy]-acetyl)2-(γGlu)-CO—(CH2)18—CO2H)AQ-Aib-EFI-(D-Glu)-YLIEGGPSSGAPPPS-NH2 (YXEGTXTSDYSIXLDKKAQXEFIXYLIEGGPSSGAPPPS; Aib, αMeF(2F), αMeL, D-Glu; lipidated K; amide; (2)..(2) Xaa at position 2 is Aib; (6)..(6) Xaa at position 6 is alpha-methyl-Phe(2F); (13)..(13) Xaa at position 13 is alpha-methyl-Leu; MOD_RES (17)..(17) Lys at position 17 is chemically modified by conjugation of the epsilon-amino group of the Lys side chain with (2-[2-(2-amino-ethoxy)-ethoxy]-acetyl)2-(gamma-Glu)-CO-(CH2)18- CO2H; (20)..(20) Xaa at position 20 is Aib; (24)..(24) Xaa at positi) [Peptide 212]”, for which the “[hGIPR/hGLP1R] EC50 Ratio” value came out at 5.41.

“Y-Aib-EGT-αMeF(2F)-TSDYSI-αMeL-LDKK((2-[2-(2-Amino-ethoxy)-ethoxy]-acetyl)-(γGlu)-(2-[2-(2-Amino-ethoxy)-ethoxy]-acetyl)-CO—(CH2)18—CO2H)AQ-Aib-EFI-(D-Glu)-YLIEGGPSSGAPPPS-NH2 (YXEGTXTSDYSIXLDKKAQXEFIXYLIEGGPSSGAPPPS; Aib, αMeF(2F), αMeL, D-Glu; lipidated K; amide; (2)..(2) Xaa at position 2 is Aib; (6)..(6) Xaa at position 6 is alpha-methyl-Phe(2F); (13)..(13) Xaa at position 13 is alpha-methyl-Leu; MOD_RES (17)..(17) Lys at position 17 is chemically modified by conjugation of the epsilon-amino group of the Lys side chain with (2-[2-(2-Amino-ethoxy)-ethoxy]-acetyl)-(gamma-Glu)-(2-[2-(2-Amino- ethoxy)-ethoxy]-acetyl)-CO-(CH2)18-CO2H; (20)..(20) Xaa at positi) [Peptide 211]”: the “[hGIPR/hGLP1R] EC50 Ratio” value came to 3.59.

For “Y-Aib-EGT-αMeF(2F)-TSDYSILLD-Orn-K((2-[2-(2-Amino-ethoxy)-ethoxy]-acetyl)2-(γGlu)-CO—(CH2)16—CO2H)AQ-Aib-EFI-(D-Glu)-YLIEGGPSSGAPPPS-NH2 (YXEGTXTSDYSILLDXKAQXEFIXYLIEGGPSSGAPPPS; Aib, Orn, αMeF(2F), lipidated Lys, D-Glu, amide; (2)..(2) Xaa at position 2 is Aib; (6)..(6) Xaa at position 6 is alpha-methyl-Phe(2F); (16)..(16) Xaa at position 16 is Orn; MOD_RES (17)..(17) Lys at position 17 is chemically modified by conjugation of the epsilon-amino group of the Lys side chain with (2-[2-(2-amino-ethoxy)-ethoxy]-acetyl)2-(gamma-Glu)-CO-(CH2)16- CO2H; (20)..(20) Xaa at position 20 is Aib; (24)..(24) Xaa at position 24 is D-Gl) [Peptide 248]”, the “[hGIPR/hGLP1R] EC50 Ratio” value is listed as 6.35. On to “Y-Aib-EGT-αMeF(2F)-TSDYSILLDEK((2-[2-(2-Amino-ethoxy)-ethoxy]-acetyl)2-(γGlu)-CO—(CH2)18—CO2H)AQ-Aib-EFI-(D-Glu)-YLIEGGPSSGAPPPS-NH2 (YXEGTXTSDYSILLDEKAQXEFIXYLIEGGPSSGAPPPS; Aib, αMeF(2F), D-Glu; lipidated K; amide; (2)..(2) Xaa at position 2 is Aib; (6)..(6) Xaa at position 6 is alpha-methyl-Phe(2F); MOD_RES (17)..(17) Lys at position 17 is chemically modified by conjugation of the epsilon-amino group of the Lys side chain with (2-[2-(2-amino-ethoxy)-ethoxy]-acetyl)2-(gamma-Glu)-CO-(CH2)18- CO2H; (20)..(20) Xaa at position 20 is Aib; (24)..(24) Xaa at position 24 is D-Glu; MOD_RES (39)..(39) Ser at position) [Peptide 226]”, for which the “[hGIPR/hGLP1R] EC50 Ratio” value came to 3.42. As for “Y-Aib-EGT-αMeF-TSDHSILLDKK((2-[2-(2-Amino-ethoxy)-ethoxy]-acetyl)2-(γGlu)-CO—(CH2)18—CO2H)AQ-Aib-AFIEYLIEGGPSSGAPPPS-NH2 (YXEGTXTSDHSILLDKKAQXAFIEYLIEGGPSSGAPPPS; Aib, αMeF; acylated lysine C20 diacid; amide; (2)..(2) Xaa at position 2 is Aib; (6)..(6) Xaa at position 6 is alpha-methyl-Phe; MOD_RES (17)..(17) Lys at position 17 is chemically modified by conjugation of the epsilon-amino group of the Lys side chain with (2-[2-(2-amino-ethoxy)-ethoxy]-acetyl)2-(gamma-Glu)-CO-(CH2)18- CO2H; (20)..(20) Xaa at position 20 is Aib; MOD_RES (39)..(39) Ser at position 39 is amidated) [Peptide 128]”, the figure is 3.51; as for “Y-Aib-EGT-αMeF-TSDLSILLDKK((2-[2-(2-Amino-ethoxy)-ethoxy]-acetyl)2-(γGlu)-CO—(CH2)18—CO2H)AQ-Aib-AFIEYLIEGGPSSGAPPPS-NH2 (YXEGTXTSDLSILLDKKAQXAFIEYLIEGGPSSGAPPPS; Aib, αMeF; acylated lysine C20 diacid; amide; (2)..(2) Xaa at position 2 is Aib; (6)..(6) Xaa at position 6 is alpha-methyl-Phe; MOD_RES (17)..(17) Lys at position 17 is chemically modified by conjugation of the epsilon-amino group of the Lys side chain with (2-[2-(2-amino-ethoxy)-ethoxy]-acetyl)2-(gamma-Glu)-CO-(CH2)18- CO2H; (20)..(20) Xaa at position 20 is Aib; MOD_RES (39)..(39) Ser at position 39 is amidated) [Peptide 129]”, 3.46; as for “Y-Aib-EGT-αMeF-TSDYSI-Aib-LDEK((2-[2-(2-Amino-ethoxy)-ethoxy]-acetyl)2-(γGlu)-CO—(CH2)18—CO2H)AQ-Aib-EFI-(D-Glu)-YLIEGGPSSGAPPPS-NH2 (YXEGTXTSDYSIXLDEKAQXEFIXYLIEGGPSSGAPPPS; Aib, αMeF, D-Glu; lipidated K; amide; (2)..(2) Xaa at position 2 is Aib; (6)..(6) Xaa at position 6 is alpha-methyl-Phe; (13)..(13) Xaa at position 13 is Aib; MOD_RES (17)..(17) Lys at position 17 is chemically modified by conjugation of the epsilon-amino group of the Lys side chain with (2-[2-(2-amino-ethoxy)-ethoxy]-acetyl)2-(gamma-Glu)-CO-(CH2)18- CO2H; (20)..(20) Xaa at position 20 is Aib; (24)..(24) Xaa at position 24 is D-Glu; M) [Peptide 225]”, 3.80.
